Two molecules from patent publication US4844895A, “Composition containing a peptide fragment of platelet factor four and method for restoring suppressed immune responses” (New York University, priority 1987, dated 1989) can be followed below.

Assay [1] concerns Con A-induced suppression. The assay is described as follows: Reversal of Con A-induced suppression of the splenic plaque-forming cell (PFC) response to SRBC in mice. It counts as in vivo. The following applies: for Geom. Mean of PFC/Spleen On Day 5, Expt. 2 / Immunomodulatory activity against suppression induced by 5 μg Con A (result in words): LA-PF4 0.6 μg; for Immunomodulatory activity against suppression induced by 5 μg Con A (result in words): concentrations well below those in serum: PDGF 0.003 μg, purified PF4 0.2 to 0.6 μg per mouse; for Reversal of Con A-induced suppression (result in words): mice, PFC response to SRBC. The procedure:
Concanavalin A (Miles--Yeda Ltd., Research Products, Israel) was reconstituted with saline and kept frozen. Dilutions from the frozen stock were stored at 4° C. and injected i.v. into mice one day prior to antigen, sheep erythrocytes (SRBC). SRBC were obtained from Colorado Serum Company (Denver, Colorado) washed, counted and injected intraperitoneally (i.p.) in mice. Human serum or platelet releasate was administered i.v. one to two hours before Con A i.v.
The spleens of the mice were assayed for plaque-forming cells (PFC) on day 5 after injection of sheep red blood cells. The assay employed was as follows: single-cell suspensions were prepared from individual spleens of mice. The cells were suspended in Hanks' Balanced Salt Solution (Gibco Laboratories, Grand Island, New York) and washed. Direct PFC were enumerated using the well-known method of Jerne, N.K. et al (in Cell-Bound Antibody, Amos, E. and Koprowsky, H. eds., Wistar Institute Press. pp. 109-111, […]) with the slide modification of Mishell, R.I. and Dutton, R.W. (J. Exp. Med. 126:423, 1967), both incorporated by reference. […]
When treated with thrombin or A23187 (Calcium ionophore), platelets also release alpha granule constituents other than PF4. In particular, they release LA-PF4 and PDGF. The inventors tested the ability of LA-PF4 and PDGF to overcome suppression induced by 5 μg Con A. […]
Mice were injected with 10 micrograms of Con A i.v. on day -1 (except in the positive control, which received no Con A) and on day 0 with 2.5×10^6 SRBC per mouse as in Example 2 above. On day -1, the mice also received either: Nothing (100% control), Con A only, platelet releasate (equivalent to the amount of PF4 holoprotein contained in the platelet releasate from 2×10^7 platelets or about 0.12 microgram/mouse) and various concentrations of the above-mentioned synthetic C-terminal peptide of human PF4.

The next assay concerns PFC response to SRBC. The assay is described as follows: PFC response to SRBC in mice not injected with Con A (adjuvant effect). Also on record: species or system CB6F1 mouse. The following applies: mouse, in vivo. The procedure: The spleens of the mice were assayed for plaque-forming cells (PFC) on day 5 after injection of sheep red blood cells. The assay employed was as follows: single-cell suspensions were prepared from individual spleens of mice. The cells were suspended in Hanks' Balanced Salt Solution (Gibco Laboratories, Grand Island, New York) and washed. Direct PFC were enumerated using the well-known method of Jerne, N.K. et al (in Cell-Bound Antibody, Amos, E. and Koprowsky, H. eds., Wistar Institute Press. pp. 109-111, […]) with the slide modification of Mishell, R.I. and Dutton, R.W. (J. Exp. Med. 126:423, 1967), both incorporated by reference.
In order to confirm and expand this finding, 1 ml o serum, diluted 1:2, was absorbed twice for thirty minutes at 4° C. using half the number of cells for each absorption as are listed for spleen (Sp1), lymphnode (LN) and thymus (Thy) in Table 3. Each CB6F1 mouse received 0.2 ml of a 1:4 dilution of absorbed or unabsorbed serum i.v. one to two hours before administration of 2×10^6 SRBC i.v. Plaque-forming cell response was measured as in Example 2.

The mark [2] stands for this setting: 5 μg Con A, n = 4, PF4 0.2 to 0.6 μg per mouse.

B1: PF4: human platelet factor 4 purified from platelet releasate on heparin-agarose (protein, UniProt P02776 32-101, looked up)
Platelet factor 4: EAEEDGDLQCLCVKTTSQVRPRHITSLEVIKAGPHCPTAQLIATLKNGRKICLDLQAPLYKKIIKKLLES
B1: in assay [1] (setting [2]), the “Geom. Mean of PFC/Spleen On Day 5, Expt. 2” value is 22,910 PFC/Spleen. For the same molecule, in assay [1] (5 μg Con A, n = 4, PF4 0.2 to 0.6 μg per mouse, PF4 + heparin mixture diluted 1:15, 0.2 ml per mouse), the “Geom. Mean of PFC/Spleen On Day 5, Expt. 3” value is listed as 34,420 PFC/Spleen. Besides, in assay [1], the “Immunomodulatory activity against suppression induced by 5 μg Con A (result in words)” value is on record as “very marked activity” and the “Reversal of Con A-induced suppression (result in words)” value is on record as “able to overcome Con A-induced suppression in a dose-dependent fashion”. Besides, the “Enhancement of antibody (PFC) response without immunosuppressive agent (result in words)” value in the assay on PFC response to SRBC is “can also stimulate antibody formation even in mammals not treated with an immunosuppressive agent”.

B2: LA-PF4: low-affinity platelet factor 4, platelet alpha-granule constituent (protein, UniProt P02775 44-128, looked up)
Connective tissue-activating …: NLAKGKEESLDSDLYAELRCMCIKTTSGIHPKNIQSLEVIGKGTHCNQVEVIATLKDGRKICLDPDAPRIKKIVQKKLAGDESAD
modifications: Connective tissue-activating peptide III
In the case of B2, the “Geom. Mean of PFC/Spleen On Day 5, Expt. 2” value in assay [1] (setting [2]) is recorded as 9,440 PFC/Spleen. For the same molecule, in assay [1], the “Immunomodulatory activity against suppression induced by 5 μg Con A (result in words)” value is recorded as “a small amount” and the “Reversal of Con A-induced suppression (result in words)” value is recorded as “no significant immunomodulating activity”.
